Test results as given in paper PMC11997335.
Like-named read-outs stand apart in the source and are kept apart here.

Assays:
Assay in all cases: single-molecule TIRF real-time association assay
[1] = target: human cytoplasmic dynein-1 complex (human) (UniProt Q14204)
[2] = target: human cytoplasmic dynein-1 complex (human) (UniProt Q14204); remark: listed apart in the source
[3] = target: human cytoplasmic dynein-1 complex (human) (UniProt Q14204); remark: listed apart in the source

percent of complexes long-lived (>80 s) [1] [%]	dwell time, major peak [1] [s]	kon [1] [M⁻¹ s⁻¹]	percent of binding events short-lived (<20 s) [1] [%]	percent of complexes medium-lived (20–80 s) [1] [%]	percent of complexes short-lived (<20 s) [1] [%]	kon [3] [M⁻¹ s⁻¹]	Substance	koff [1] [s⁻¹]	fraction of dynein molecules bound by the end of data acquisition [2] [%]	koff [2] [s⁻¹]	percent of complexes long-lived (>80 s) [2] [%]	percent of complexes medium-lived (20–80 s) [2] [%]	percent of complexes short-lived (<20 s) [2] [%]
16	5	9.21e+06	32	37	47	7.97e+06	NINL (amino acids 1–702) with N-terminal HaloTag (from UniProt Q9Y2I6 1-702) (domain or fragment)	0.0627	60	–	–	–	–
9	5	–	30	22	69	–	dynactin complex purified from HEK293T cells stably expressing p62-Halo-3xFLAG (from UniProt Q9UJW0;Q14203;P61163)	–	–	–	–	–	–

Substance	percent of complexes long-lived (>80 s) [1] [%]	dwell time, major peak [1] [s]	kon [1] [M⁻¹ s⁻¹]	percent of binding events short-lived (<20 s) [1] [%]	percent of complexes medium-lived (20–80 s) [1] [%]	percent of complexes short-lived (<20 s) [1] [%]	kon [3] [M⁻¹ s⁻¹]	koff [1] [s⁻¹]	fraction of dynein molecules bound by the end of data acquisition [2] [%]	koff [2] [s⁻¹]	percent of complexes long-lived (>80 s) [2] [%]	percent of complexes medium-lived (20–80 s) [2] [%]	percent of complexes short-lived (<20 s) [2] [%]
BicD2 (amino acids 1–598) with N-terminal HaloTag (from UniProt Q8TD16 1-598) (domain or fragment)	37	–	–	–	–	–	–	0.137	< 25	0.038	6	22	72
